T1: His-CYPJ (recombinant) (human, UniProt Q9H2H8 1-161)
T1 chain: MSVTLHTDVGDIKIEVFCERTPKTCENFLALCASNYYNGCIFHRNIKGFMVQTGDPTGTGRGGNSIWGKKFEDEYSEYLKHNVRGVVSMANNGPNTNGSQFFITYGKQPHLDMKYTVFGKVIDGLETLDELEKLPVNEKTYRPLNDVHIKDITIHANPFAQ

T2: His-CYPJ (recombinant) (human, UniProt Q9H2H8 1-161)
T2 construct: cyclophilin J (CYPJ, PPIL3), human; also called recombinant His-CYPJ
T2 sequence (looked up): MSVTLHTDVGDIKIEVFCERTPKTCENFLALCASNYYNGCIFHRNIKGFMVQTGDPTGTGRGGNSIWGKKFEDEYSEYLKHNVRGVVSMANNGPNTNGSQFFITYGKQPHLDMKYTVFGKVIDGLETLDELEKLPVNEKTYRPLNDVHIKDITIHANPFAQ


Assays:
His-CYPJ (recombinant) [1] = target: T1, His-CYPJ (recombinant); test: ITC
His-CYPJ (recombinant) [2] = target: T2, His-CYPJ (recombinant); test: ITC; synthetic NZF peptides and His-CYPJ; MicroCal iTC200, standard procedure; details: both partners purified

| Ka (His-CYPJ (recombinant) [1]) [M⁻¹] | binding result (His-CYPJ (recombinant) [2]) | Binder |
| --- | --- | --- |
| 1030 | binds | WNCDSCTFLNHPALNRCEQCEMP (peptide from the NZF domain of TAB3; limits counted from C706 named in the introduction; source: synthetic peptide (DgPeptides)) [TAB3-NZF peptide] |
| 283 | binds | QWNCTACTFLNHPALIRCEQCEMP (peptide from the NZF domain of TAB2; limits counted from C670 and C673 named in the introduction; source: synthetic peptide (DgPeptides)) [TAB2-NZF peptide] |

From publication PMC6197184, “Cyclophilin J limits inflammation through the blockage of ubiquitin chain sensing” (Nature Communications, 2018)
